Results taken from PMC7954794, “Protein context shapes the specificity of SH3 domain-mediated interactions in vivo” (Nature Communications, 2021).

B1: PEX13 (protein, UniProt P80667 1-386, looked up)
Peroxisomal membrane protein …: MSSTAVPRPKPWETSASLEEPQRNAQSLSAMMTSNQQDSRPTEESNNSNSASESAPEVLPRPAALNSSGTYGESNTIPGIYGNSNYGIPYDNNPYSMNSIYGNSIGRYGYGGSYYGNNYGSFYGGGYGAGAGYGMNNGSGLGESTKATFQLIESLIGAVTGFAQMLESTYMATHNSFFTMISVAEQFGNLKEMLGSFFGIFAIMKFLKKILYRATKGRLGIPPKNFAESEGSKNKLIEDFQKFNDSGTINSNEKATRRKISWKPLLFFLMAVFGFPYLLNKFITKLQTSGTIRASQGNGSEPIDPSKLEFARALYDFVPENPEMEVALKKGDLMAILSKKDPLGRDSDWWKVRTKNGNIGYIPYNYIEIIKRRKKIEHVDDETRTH
B2: MYO5 (protein, UniProt Q04439 1-1219, looked up)
Myosin-5: MAILKRGARKKVHQEPAKRSANIKKATFDSSKKKEVGVSDLTLLSKISDEAINENLKKRFLNATIYTYIGHVLISVNPFRDLGIYTDAVMNEYKGKNRLEVPPHVFAIAESMYYNMKSYNENQCVIISGESGAGKTEAAKRIMQYIAAASSTHTESIGKIKDMVLATNPLLESFGCAKTLRNNNSSRHGKYLEIKFNNQFEPCAGNITNYLLEKQRVVSQIKNERNFHIFYQFTKGASDAYRQTFGVQKPEQYVYTAAAGCISAETIDDLQDYQETLKAMRVIGLGQEEQDQIFRMLAAILWIGNVSFIENEEGNAQVRDTSVTDFVAYLLQIDSQLLIKSLVERIMETNHGMKRGSVYHVPLNIVQADAVRDALAKAIYNNLFDWIVSRVNKSLQAFPGAEKSIGILDIYGFEIFEHNSFEQICINYVNEKLQQIFIQLTLKSEQETYEREKIQWTPIKYFDNKVVCDLIEARRPPGIFAAMNDSVATAHADSNAADQAFAQRLNLFTTNPHFDLRSNKFVIKHYAGDVTYDIDGITDKNKDQLQKDLVELIGTTTNTFLATIFPDTVDRESKRRPPTAGDKIIKSANDLVETLSKAQPSYIRTIKPNETKSPNDYDDRQVLHQIKYLGLQENVRIRRAGFAYRQVFEKFVERFYLLSPHCSYAGDYTWQGDTLDAVKYILQDSSIPQQEYQLGVTSVFIKTPETLFALEHMRDRYWHNMAARIQRAWRRFLQRRIDAATKIQRTIRERKEGNKYEKLRDYGTKVLGGRKERRSMSLLGYRAFMGDYLSCNESKSKGAYIKRQVSIKEKVIFSIHGEALHTKFGRSAQRLKKTFLLTPTTLYIVGQTLVQNAMTYTQDYKIDVRNIQAVSLTNLQDDWVAIKLASSGQPDPLINTYFKTELITHLKRLNDKIQIKIGSAIEYQKKPGKLHSVKCQINESAPKYGDIYKSSTISVRRGNPPNSQVHKKPRKKSSISSGYHASSSQATRRPVSIAAAQHVPTAPASRHSKKPAPPPPGMQNKAATRRSVPNPASTLTASQSNARPSPPTAATRATPAATPAAAAMGSGRQANIPPPPPPPPPSSKPKEPMFEAAYDFPGSGSPSELPLKKGDVIYITREEPSGWSLGKLLDGSKEGWVPTAYMKPHSGNNNIPTPPQNRDVPKPVLNSVQHDNTSANVIPAAAQASLGDGLANALAARANKMRLESDDEEANEDEEEDDW

Test system: Abp1 PPIs
Experiment: DHFR-PCA of Abp1 SH3-swapped baits (Fig. 2B-D, S2C, S2F);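 as to Protein-protein interaction distance between Abp1 SH3-swapped baits, to ABP1: Euclidean distance between DHFR-PCA score profiles of the baits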;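 as to Protein-protein interaction distance between Abp1 SH3-swapped baits, to BEM1-2: Euclidean distance between DHFR-PCA score profiles of the baits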;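 as to Protein-protein interaction distance between Abp1 SH3-swapped baits, to BOI1: Euclidean distance between DHFR-PCA score profiles of the baits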;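 as to Protein-protein interaction distance between Abp1 SH3-swapped baits, to BZZ1-1: Euclidean distance between DHFR-PCA score profiles of the baits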
Type: cell-based, Saccharomyces cerevisiae
Conditions: for Protein-protein interaction distance between Abp1 SH3-swapped baits, to ABP1: Abp1 bait with swapped SH3, distance to bait with ABP1 SH3; for Protein-protein interaction distance between Abp1 SH3-swapped baits, to ABP1 / Protein-protein interaction distance between Abp1 SH3-swapped baits, to BBC1 / Protein-protein interaction distance between Abp1 SH3-swapped baits, to BEM1-1 / Protein-protein interaction distance between Abp1 SH3-swapped baits, to BEM1-2 / Protein-protein interaction distance between Abp1 SH3-swapped baits, to BOI1 / Protein-protein interaction distance between Abp1 SH3-swapped baits, to BOI2 / Protein-protein interaction distance between Abp1 SH3-swapped baits, to BUD14 / Protein-protein interaction distance between Abp1 SH3-swapped baits, to BZZ1-1 / Protein-protein interaction distance between Abp1 SH3-swapped baits, to BZZ1-2 / Protein-protein interaction distance between Abp1 SH3-swapped baits, to CDC25 / Protein-protein interaction distance between Abp1 SH3-swapped baits, to CTTN / Protein-protein interaction distance between Abp1 SH3-swapped baits, to CYK3 / Protein-protein interaction distance between Abp1 SH3-swapped baits, to DBNL / Protein-protein interaction distance between Abp1 SH3-swapped baits, to FUS1 / Protein-protein interaction distance between Abp1 SH3-swapped baits, to HCLS1 / Protein-protein interaction distance between Abp1 SH3-swapped baits, to HOF1 / Protein-protein interaction distance between Abp1 SH3-swapped baits, to HSE1 / Protein-protein interaction distance between Abp1 SH3-swapped baits, to LSB1 / Protein-protein interaction distance between Abp1 SH3-swapped baits, to LSB3 / Protein-protein interaction distance between Abp1 SH3-swapped baits, to MYO3 / Protein-protein interaction distance between Abp1 SH3-swapped baits, to MYO5 / Protein-protein interaction distance between Abp1 SH3-swapped baits, to NBP2 / Protein-protein interaction distance between Abp1 SH3-swapped baits, to PEX13 / Protein-protein interaction distance between Abp1 SH3-swapped baits, to PIN3 / Protein-protein interaction distance between Abp1 SH3-swapped baits, to RVS167 / Protein-protein interaction distance between Abp1 SH3-swapped baits, to SDC25 / Protein-protein interaction distance between Abp1 SH3-swapped baits, to SHO1 / Protein-protein interaction distance between Abp1 SH3-swapped baits, to SLA1-1 / Protein-protein interaction distance between Abp1 SH3-swapped baits, to SLA1-2 / Protein-protein interaction distance between Abp1 SH3-swapped baits, to SLA1-3 / Protein-protein interaction distance between Abp1 SH3-swapped baits, to YSC84: sheet Fig2C; for Protein-protein interaction distance between Abp1 SH3-swapped baits, to BBC1: distance to Abp1 bait with BBC1 SH3; for Protein-protein interaction distance between Abp1 SH3-swapped baits, to BEM1-1: distance to Abp1 bait with BEM1-1 SH3; for Protein-protein interaction distance between Abp1 SH3-swapped baits, to BEM1-2: distance to Abp1 bait with BEM1-2 SH3; for Protein-protein interaction distance between Abp1 SH3-swapped baits, to BOI1: distance to Abp1 bait with BOI1 SH3; for Protein-protein interaction distance between Abp1 SH3-swapped baits, to BOI2: distance to Abp1 bait with BOI2 SH3; for Protein-protein interaction distance between Abp1 SH3-swapped baits, to BUD14: distance to Abp1 bait with BUD14 SH3; for Protein-protein interaction distance between Abp1 SH3-swapped baits, to BZZ1-1: distance to Abp1 bait with BZZ1-1 SH3; for Protein-protein interaction distance between Abp1 SH3-swapped baits, to BZZ1-2: distance to Abp1 bait with BZZ1-2 SH3; for Protein-protein interaction distance between Abp1 SH3-swapped baits, to CDC25: distance to Abp1 bait with CDC25 SH3; for Protein-protein interaction distance between Abp1 SH3-swapped baits, to CTTN: distance to Abp1 bait with CTTN SH3; for Protein-protein interaction distance between Abp1 SH3-swapped baits, to CYK3: distance to Abp1 bait with CYK3 SH3; for Protein-protein interaction distance between Abp1 SH3-swapped baits, to DBNL: distance to Abp1 bait with DBNL SH3; for Protein-protein interaction distance between Abp1 SH3-swapped baits, to FUS1: distance to Abp1 bait with FUS1 SH3; for Protein-protein interaction distance between Abp1 SH3-swapped baits, to HCLS1: distance to Abp1 bait with HCLS1 SH3; for Protein-protein interaction distance between Abp1 SH3-swapped baits, to HOF1: distance to Abp1 bait with HOF1 SH3; for Protein-protein interaction distance between Abp1 SH3-swapped baits, to HSE1: distance to Abp1 bait with HSE1 SH3; for Protein-protein interaction distance between Abp1 SH3-swapped baits, to LSB1: distance to Abp1 bait with LSB1 SH3; for Protein-protein interaction distance between Abp1 SH3-swapped baits, to LSB3: distance to Abp1 bait with LSB3 SH3; for Protein-protein interaction distance between Abp1 SH3-swapped baits, to MYO3: distance to Abp1 bait with MYO3 SH3; for Protein-protein interaction distance between Abp1 SH3-swapped baits, to MYO5: distance to Abp1 bait with MYO5 SH3; for Protein-protein interaction distance between Abp1 SH3-swapped baits, to NBP2: distance to Abp1 bait with NBP2 SH3; for Protein-protein interaction distance between Abp1 SH3-swapped baits, to PEX13: distance to Abp1 bait with PEX13 SH3; for Protein-protein interaction distance between Abp1 SH3-swapped baits, to PIN3: distance to Abp1 bait with PIN3 SH3; for Protein-protein interaction distance between Abp1 SH3-swapped baits, to RVS167: distance to Abp1 bait with RVS167 SH3; for Protein-protein interaction distance between Abp1 SH3-swapped baits, to SDC25: distance to Abp1 bait with SDC25 SH3; for Protein-protein interaction distance between Abp1 SH3-swapped baits, to SHO1: distance to Abp1 bait with SHO1 SH3; for Protein-protein interaction distance between Abp1 SH3-swapped baits, to SLA1-1: distance to Abp1 bait with SLA1-1 SH3; for Protein-protein interaction distance between Abp1 SH3-swapped baits, to SLA1-2: distance to Abp1 bait with SLA1-2 SH3; for Protein-protein interaction distance between Abp1 SH3-swapped baits, to SLA1-3: distance to Abp1 bait with SLA1-3 SH3; for Protein-protein interaction distance between Abp1 SH3-swapped baits, to YSC84: distance to Abp1 bait with YSC84 SH3; for PPIs gained by Abp1 - SH3-dependent PPIs gained by Abp1 / SH3-dependent PPIs - SH3-dependent PPIs gained by Abp1 / SH3-dependent PPIs gained by Abp1: number of PPIs, Abp1 SH3-swapped with the listed SH3, Fig2D,S2F; for PPIs gained by Abp1 - SH3-dependent PPIs gained by Abp1 / SH3-dependent PPIs - SH3-dependent PPIs gained by Abp1: difference; for SH3-dependent PPIs gained by Abp1: DHFR-PCA
Method in brief: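 Interactions were scored by DHFR protein-fragment complementation. DHFR F[1,2]-tagged Abp1 strains, whose SH3 was swapped for yeast or human ortholog domains, were crossed on YPD at 30 °C for 48 h with a 1536-format array of 575 prey-DHFR F[3] strains and 40 negatives, giving four replicates per pair. PCA selection lasted 4 days after double diploid selection.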

Molecule	Protein-protein interaction distance between Abp1 SH3-swapped baits, to ABP1	Protein-protein interaction distance between Abp1 SH3-swapped baits, to BBC1	Protein-protein interaction distance between Abp1 SH3-swapped baits, to BEM1-1	Protein-protein interaction distance between Abp1 SH3-swapped baits, to BEM1-2	Protein-protein interaction distance between Abp1 SH3-swapped baits, to BOI1	Protein-protein interaction distance between Abp1 SH3-swapped baits, to BOI2	Protein-protein interaction distance between Abp1 SH3-swapped baits, to BUD14	Protein-protein interaction distance between Abp1 SH3-swapped baits, to BZZ1-1	Protein-protein interaction distance between Abp1 SH3-swapped baits, to BZZ1-2	Protein-protein interaction distance between Abp1 SH3-swapped baits, to CDC25	Protein-protein interaction distance between Abp1 SH3-swapped baits, to CTTN	Protein-protein interaction distance between Abp1 SH3-swapped baits, to CYK3	Protein-protein interaction distance between Abp1 SH3-swapped baits, to DBNL	Protein-protein interaction distance between Abp1 SH3-swapped baits, to FUS1	Protein-protein interaction distance between Abp1 SH3-swapped baits, to HCLS1	Protein-protein interaction distance between Abp1 SH3-swapped baits, to HOF1	Protein-protein interaction distance between Abp1 SH3-swapped baits, to HSE1	Protein-protein interaction distance between Abp1 SH3-swapped baits, to LSB1	Protein-protein interaction distance between Abp1 SH3-swapped baits, to LSB3	Protein-protein interaction distance between Abp1 SH3-swapped baits, to MYO3	other results
B1	10.96	10.86	16.62	35.19	13.22	16.99	19.91	7.297	13.09	29.16	14.16	29.86	7.699	21.37	8.5	33.79	8.715	6.728	7.361	8.874	Protein-protein interaction distance between Abp1 SH3-swapped baits, to MYO5: 7.969; Protein-protein interaction distance between Abp1 SH3-swapped baits, to NBP2: 19.13; Protein-protein interaction distance between Abp1 SH3-swapped baits, to PEX13: 0.00; Protein-protein interaction distance between Abp1 SH3-swapped baits, to PIN3: 5.433; Protein-protein interaction distance between Abp1 SH3-swapped baits, to RVS167: 4.587; Protein-protein interaction distance between Abp1 SH3-swapped baits, to SDC25: 35.86; Protein-protein interaction distance between Abp1 SH3-swapped baits, to SHO1: 8.672; Protein-protein interaction distance between Abp1 SH3-swapped baits, to SLA1-1: 31.78; Protein-protein interaction distance between Abp1 SH3-swapped baits, to SLA1-2: 21.86; Protein-protein interaction distance between Abp1 SH3-swapped baits, to SLA1-3: 6.985; Protein-protein interaction distance between Abp1 SH3-swapped baits, to YSC84: 7.848; PPIs gained by Abp1 - SH3-dependent PPIs gained by Abp1: 23; SH3-dependent PPIs - SH3-dependent PPIs gained by Abp1: 0; SH3-dependent PPIs gained by Abp1: 1
B2	12.37	12.56	17.04	34.62	14.33	17.59	20.27	9.674	13.83	28.8	14.85	29.49	9.722	21.47	10.37	33.29	10.84	7.822	8.063	5.861	Protein-protein interaction distance between Abp1 SH3-swapped baits, to MYO5: 0.00; Protein-protein interaction distance between Abp1 SH3-swapped baits, to NBP2: 19.41; Protein-protein interaction distance between Abp1 SH3-swapped baits, to PEX13: 7.969; Protein-protein interaction distance between Abp1 SH3-swapped baits, to PIN3: 6.67; Protein-protein interaction distance between Abp1 SH3-swapped baits, to RVS167: 7.689; Protein-protein interaction distance between Abp1 SH3-swapped baits, to SDC25: 35.29; Protein-protein interaction distance between Abp1 SH3-swapped baits, to SHO1: 10.26; Protein-protein interaction distance between Abp1 SH3-swapped baits, to SLA1-1: 31.36; Protein-protein interaction distance between Abp1 SH3-swapped baits, to SLA1-2: 22.13; Protein-protein interaction distance between Abp1 SH3-swapped baits, to SLA1-3: 7.257; Protein-protein interaction distance between Abp1 SH3-swapped baits, to YSC84: 8.128; PPIs gained by Abp1 - SH3-dependent PPIs gained by Abp1: 27; SH3-dependent PPIs - SH3-dependent PPIs gained by Abp1: 16; SH3-dependent PPIs gained by Abp1: 3
